In paper PMC2756588:

How the values were obtained:
Test in all cases: SPOT array
[1] = biological target: T1, Sla1-2, P32790; details: median of control spots 712
T1 sequence (P32790 60-140, looked up): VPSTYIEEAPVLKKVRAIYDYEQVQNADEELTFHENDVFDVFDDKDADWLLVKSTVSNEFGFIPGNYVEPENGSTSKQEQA

[2] = biological target: T2, Boi1, P38041; details: median of control spots 1162
T2 sequence (P38041 1-86, looked up): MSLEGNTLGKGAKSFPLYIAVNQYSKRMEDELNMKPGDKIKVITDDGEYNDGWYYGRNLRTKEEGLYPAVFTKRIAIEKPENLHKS

[3] = biological target: T3, Fus1, P11710; details: median of control spots 1200
T3 sequence (P11710 432-512, looked up): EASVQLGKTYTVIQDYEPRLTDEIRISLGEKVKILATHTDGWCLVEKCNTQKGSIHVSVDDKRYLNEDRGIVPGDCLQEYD

[4] = biological target: T4, Cdc25, P04821; details: median of control spots 969
T4 sequence (P04821 50-136, looked up): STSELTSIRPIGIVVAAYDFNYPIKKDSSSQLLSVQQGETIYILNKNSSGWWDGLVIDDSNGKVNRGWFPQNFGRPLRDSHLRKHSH

[5] = biological target: T5, Abp1, P15891; details: median of control spots 935
T5 sequence (P15891 535-592, looked up): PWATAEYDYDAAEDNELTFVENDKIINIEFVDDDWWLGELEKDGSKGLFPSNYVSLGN

[6] = biological target: Sho1, P40073; details: median of control spots 1148
Sho1, P40073, sequence (P40073 287-367): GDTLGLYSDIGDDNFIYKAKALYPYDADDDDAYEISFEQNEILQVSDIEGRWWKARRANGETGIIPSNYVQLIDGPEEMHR

[7] = biological target: T6, Boi2, P39969; details: median of control spots 1161
T6 sequence (P39969 32-116, looked up): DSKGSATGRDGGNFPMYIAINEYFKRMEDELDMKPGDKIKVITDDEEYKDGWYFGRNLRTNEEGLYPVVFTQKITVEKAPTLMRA

[8] = biological target: T7, Lsb1, P53281; details: median of control spots 388
T7 sequence (P53281 45-122, looked up): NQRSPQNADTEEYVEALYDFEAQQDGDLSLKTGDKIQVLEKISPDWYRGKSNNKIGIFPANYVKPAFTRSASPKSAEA

[9] = biological target: T8, Sla1-3, P32790; details: median of control spots 5475
T8 sequence (P32790 344-424, looked up): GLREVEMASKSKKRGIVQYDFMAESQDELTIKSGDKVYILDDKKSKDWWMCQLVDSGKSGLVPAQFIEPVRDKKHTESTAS

[10] = biological target: T9, Bzz1-1, P38822; details: median of control spots 4446
T9 sequence (P38822 478-572, looked up): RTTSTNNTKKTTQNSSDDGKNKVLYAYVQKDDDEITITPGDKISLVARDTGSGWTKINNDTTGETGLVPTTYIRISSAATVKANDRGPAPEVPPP

[11] = biological target: Bem1-1, P29366; details: median of control spots 4282
Bem1-1, P29366, sequence (P29366 55-141): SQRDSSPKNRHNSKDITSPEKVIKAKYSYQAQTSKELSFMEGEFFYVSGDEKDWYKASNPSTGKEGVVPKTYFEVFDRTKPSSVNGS

[12] = biological target: T10, Pin3, Q06449; details: median of control spots 2171
T10 sequence (Q06449 53-122, looked up): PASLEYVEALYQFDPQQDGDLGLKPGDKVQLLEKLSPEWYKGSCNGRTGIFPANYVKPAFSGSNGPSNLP

[13] = biological target: T11, Bud14, P27637; details: median of control spots 956
T11 sequence (P27637 247-328, looked up): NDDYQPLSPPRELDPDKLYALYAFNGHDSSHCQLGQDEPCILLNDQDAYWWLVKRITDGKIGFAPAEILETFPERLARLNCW

[14] = biological target: T12, Nbp2, Q12163; details: median of control spots 357
T12 sequence (Q12163 103-180, looked up): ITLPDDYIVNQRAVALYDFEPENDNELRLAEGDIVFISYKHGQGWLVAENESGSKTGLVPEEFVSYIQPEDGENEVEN

[15] = biological target: T13, Bzz1-2, P38822; details: median of control spots 4538
T13 sequence (P38822 568-633, looked up): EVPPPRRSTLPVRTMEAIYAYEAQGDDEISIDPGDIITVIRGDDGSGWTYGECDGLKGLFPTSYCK

[16] = biological target: T14, Hof1, Q05080; details: median of control spots 4086
T14 sequence (Q05080 590-669, looked up): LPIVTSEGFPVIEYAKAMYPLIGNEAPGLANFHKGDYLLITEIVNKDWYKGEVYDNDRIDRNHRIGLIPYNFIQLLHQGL

[17] = biological target: Rvs167, P39743; details: median of control spots 2707
Rvs167, P39743, sequence (P39743 419-482): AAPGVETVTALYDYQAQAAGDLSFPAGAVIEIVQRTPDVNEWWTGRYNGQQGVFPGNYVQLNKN

[18] = biological target: Myo3, P36006; details: median of control spots 468
[19] = biological target: T15, Myo5, Q04439; details: median of control spots 471
T15 sequence (Q04439 1072-1160, looked up): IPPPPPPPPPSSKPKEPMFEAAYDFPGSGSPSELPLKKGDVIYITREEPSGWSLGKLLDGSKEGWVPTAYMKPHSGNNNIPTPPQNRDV

[20] = biological target: T16, Hse1, P38753; details: median of control spots 1727
T16 sequence (P38753 208-285, looked up): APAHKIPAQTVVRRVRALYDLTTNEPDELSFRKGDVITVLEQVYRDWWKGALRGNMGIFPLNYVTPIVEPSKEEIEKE

[21] = biological target: T17, Lsb3, P43603; details: median of control spots 406
T17 sequence (P43603 385-451, looked up): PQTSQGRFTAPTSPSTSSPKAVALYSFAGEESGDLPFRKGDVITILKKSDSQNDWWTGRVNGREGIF

[22] = biological target: T18, Lsb4, P32793; details: median of control spots 397
T18 sequence (P32793 402-468, looked up): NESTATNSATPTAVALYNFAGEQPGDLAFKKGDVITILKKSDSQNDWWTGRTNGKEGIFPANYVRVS

[23] = biological target: T19, Pex13, P80667; details: median of control spots 1341
T19 sequence (P80667 295-386, looked up): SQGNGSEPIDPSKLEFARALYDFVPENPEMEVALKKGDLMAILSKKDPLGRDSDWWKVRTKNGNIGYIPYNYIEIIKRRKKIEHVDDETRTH

[24] = biological target: GST; details: median of control spots 978
[25] = biological target: T20, Bbc1, P47068; details: median of control spots 796
T20 sequence (P47068 1-78, looked up): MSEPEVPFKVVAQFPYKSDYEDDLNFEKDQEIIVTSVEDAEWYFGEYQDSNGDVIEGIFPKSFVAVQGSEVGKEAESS

[26] = biological target: T21, Cyk3, Q07533; details: median of control spots 1451
T21 sequence (Q07533 1-83, looked up): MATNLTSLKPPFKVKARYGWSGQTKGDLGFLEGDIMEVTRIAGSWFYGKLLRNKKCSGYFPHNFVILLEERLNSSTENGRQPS

[27] = biological target: Bem1-2, P29366; details: median of control spots 4347
Bem1-2, P29366, sequence (P29366 139-227): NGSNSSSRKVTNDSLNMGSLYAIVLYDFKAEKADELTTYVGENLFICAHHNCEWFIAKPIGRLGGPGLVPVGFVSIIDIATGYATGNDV

Binder | SPOT intensity [1] | SPOT intensity [2] | SPOT intensity [3] | SPOT intensity [4] | SPOT intensity [5] | SPOT intensity [6] | SPOT intensity [7] | SPOT intensity [8] | SPOT intensity [9] | SPOT intensity [10] | SPOT intensity [11] | SPOT intensity [12] | SPOT intensity [13] | SPOT intensity [14] | SPOT intensity [15] | SPOT intensity [16] | SPOT intensity [17] | SPOT intensity [18] | SPOT intensity [19] | SPOT intensity [20] | also measured
KRKRRLPVSEDTNTK | 0 | 6 | 150 | 16 | 78 | 54 | 2 | 1 | 21 | 3 | 1 | 4 | 22 | 8 | 1 | 0 | 1 | 9 | 0 | 4 | SPOT intensity [21]: 8; SPOT intensity [22]: 4; SPOT intensity [23]: 0; SPOT intensity [24]: 6; SPOT intensity [25]: 77; SPOT intensity [26]: 8; SPOT intensity [27]: 0
RMVRRRPLRVQFSAR | 37 | 14 | 92 | 94 | 270 | 259 | 12 | 60 | 128 | 4 | 6 | 70 | 36 | 104 | 16 | 10 | 3 | 50 | 10 | 41 | SPOT intensity [21]: 35; SPOT intensity [22]: 25; SPOT intensity [23]: 17; SPOT intensity [24]: 9; SPOT intensity [25]: 235; SPOT intensity [26]: 12; SPOT intensity [27]: 27
QRKSLRRPTLSKPAV | 3 | 2 | 2 | 7 | 78 | 116 | 0 | 32 | 22 | 4 | 0 | 9 | 2 | 5 | 16 | 4 | 0 | 10 | 3 | 10 | SPOT intensity [21]: 3; SPOT intensity [22]: 3; SPOT intensity [23]: 3; SPOT intensity [24]: 6; SPOT intensity [25]: 37; SPOT intensity [26]: 4; SPOT intensity [27]: 1
RSVKRPRRAPRPVVS | 6 | 1 | 19 | 20 | 204 | 60 | 6 | 94 | 25 | 0 | 3 | 2 | 12 | 67 | 3 | 6 | 9 | 11 | 1 | 8 | SPOT intensity [21]: 52; SPOT intensity [22]: 34; SPOT intensity [23]: 0; SPOT intensity [24]: 4; SPOT intensity [25]: 377; SPOT intensity [26]: 12; SPOT intensity [27]: 15
TIRRRAPLSLLESHT | 1 | 1 | 3 | 13 | 46 | 52 | 2 | 29 | 38 | 3 | 2 | 11 | 13 | 11 | 8 | 4 | 3 | 0 | 0 | 16 | SPOT intensity [21]: 0; SPOT intensity [22]: 1; SPOT intensity [23]: 3; SPOT intensity [24]: 1; SPOT intensity [25]: 15; SPOT intensity [26]: 3; SPOT intensity [27]: 4
NRLRKRLNLPSEISI | 1 | 12 | 321 | 42 | 36 | 58 | 3 | 459 | 141 | 6 | 0 | 17 | 7 | 32 | 13 | 45 | 0 | 4 | 2 | 99 | SPOT intensity [21]: 3; SPOT intensity [22]: 0; SPOT intensity [23]: 2; SPOT intensity [24]: 1; SPOT intensity [25]: 74; SPOT intensity [26]: 8; SPOT intensity [27]: 3
